Test results: PMC4381075, “An intrinsically disordered region of methyl-CpG binding domain protein 2 (MBD2) recruits the histone deacetylase core of the NuRD complex”

What was measured:
MBD2FLsc (human) [1] = biological target: MBD2FLsc (human) (UniProt Q9UBB5); experiment: SPR; settings: 5-methyl-C at position 9 of strand 1 (central CpG), complement mC at position 8 implied, not given, SPR: 10 mM HEPES pH 7.4, 50 mM NaCl, 3 mM MgCl2, 0.1 mM EDTA, 1 mM DTT, 0.05% polysorbate 20, FP: 10 mM HEPES pH 7.5, 50 or 150 mM NaCl
MBD2FLsc (human) [2] = biological target: MBD2FLsc (human) (UniProt Q9UBB5); experiment: fluorescence polarization; settings: 5-methyl-C at position 9 of strand 1 (central CpG), complement mC at position 8 implied, not given, SPR: 10 mM HEPES pH 7.4, 50 mM NaCl, 3 mM MgCl2, 0.1 mM EDTA, 1 mM DTT, 0.05% polysorbate 20, FP: 10 mM HEPES pH 7.5, 50 or 150 mM NaCl
MBD2(150-260) [3] = biological target: T1, MBD2(150-260) (human, UniProt Q9UBB5 150-260); experiment: fluorescence polarization; 50 mM NaCl; SPR: 10 mM HEPES pH 7.4, 50 mM NaCl, 3 mM MgCl2, 0.1 mM EDTA, 1 mM DTT, 0.05% polysorbate 20; FP: 10 mM HEPES pH 7.5, 50 or 150 mM NaCl, 3 mM MgCl2, 0.1 mM EDTA, 1 mM DTT, 0.02% azide; temperature not stated; settings: protein: recombinant; tags: thioredoxin-His fusion (modified pET32a; tag retained); label: 3' FAM on reverse strand; blunt
MBD2MBD [4] = biological target: T2, MBD2MBD (human, UniProt Q9UBB5 150-214); experiment: as above; settings: protein: recombinant; tags: thioredoxin-His fusion (modified pET32a; tag retained); label: 3' FAM on reverse strand; blunt
MBD2(150-260) [5] = biological target: T1, MBD2(150-260); experiment: SPR; 50 mM NaCl, 3 mM Mg2+; SPR: 10 mM HEPES pH 7.4, 50 mM NaCl, 3 mM MgCl2, 0.1 mM EDTA, 1 mM DTT, 0.05% polysorbate 20; FP: 10 mM HEPES pH 7.5, 50 or 150 mM NaCl, 3 mM MgCl2, 0.1 mM EDTA, 1 mM DTT, 0.02% azide; temperature not stated; settings: protein: recombinant; tags: thioredoxin-His fusion (modified pET32a; tag retained); label: 3' biotin on forward strand; blunt
MBD2MBD [6] = biological target: T2, MBD2MBD; experiment: SPR steady state; 50 mM NaCl, 3 mM Mg2+; SPR: 10 mM HEPES pH 7.4, 50 mM NaCl, 3 mM MgCl2, 0.1 mM EDTA, 1 mM DTT, 0.05% polysorbate 20; FP: 10 mM HEPES pH 7.5, 50 or 150 mM NaCl, 3 mM MgCl2, 0.1 mM EDTA, 1 mM DTT, 0.02% azide; temperature not stated; settings: protein: recombinant; tags: thioredoxin-His fusion (modified pET32a; tag retained); label: 3' biotin on forward strand; blunt

MBD2FLsc (human), sequence (Q9UBB5 whole entry, the tested form may be a part): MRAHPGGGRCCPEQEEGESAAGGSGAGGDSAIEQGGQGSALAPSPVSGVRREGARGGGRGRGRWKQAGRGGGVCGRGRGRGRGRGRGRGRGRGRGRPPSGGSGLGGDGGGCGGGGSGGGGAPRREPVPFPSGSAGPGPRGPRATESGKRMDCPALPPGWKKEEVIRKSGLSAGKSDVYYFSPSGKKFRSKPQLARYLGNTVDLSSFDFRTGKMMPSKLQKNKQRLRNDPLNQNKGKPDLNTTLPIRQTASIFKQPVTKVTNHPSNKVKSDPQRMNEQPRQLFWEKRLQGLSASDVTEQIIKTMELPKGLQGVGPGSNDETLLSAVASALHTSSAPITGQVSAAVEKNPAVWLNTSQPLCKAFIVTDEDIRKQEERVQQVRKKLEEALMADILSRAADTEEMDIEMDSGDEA
T2 sequence (Q9UBB5 150-214): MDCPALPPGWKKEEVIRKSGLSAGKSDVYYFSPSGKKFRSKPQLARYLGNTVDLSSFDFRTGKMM
T1 sequence (Q9UBB5 150-260): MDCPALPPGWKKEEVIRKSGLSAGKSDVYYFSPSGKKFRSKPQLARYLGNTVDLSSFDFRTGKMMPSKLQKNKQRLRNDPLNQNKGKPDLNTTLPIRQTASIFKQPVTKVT

In the case of “GAGGCGCTCGGCGGCAG (double strand) [17 bp central mCpG, SPR]”, the Kd (MBD2FLsc (human) [1]) is reported as 2 nM.

“GAGGCGCTCGGCGGCAG (double strand) [17 bp central mCpG, FP]” gave a binding signal (fold affinity vs 50 mM NaCl) (MBD2FLsc (human) [2]) of 0.1 and a binding signal (fold affinity vs MBD2MBD) (MBD2FLsc (human) [2]) of 100.

B1: 17 bp central mCpG, FP (dsDNA)
DNA 1: GAGGCGCTCGGCGGCAG
DNA 2: CTGCCGCCGAGCGCCTC
modifications: 5-methyl-C at position 9 of strand 1 (central CpG); complement mC at position 8 implied, not given
For B1, the binding signal (MBD2(150-260) [3]) was about 100 fold affinity vs MBD2MBD and the binding signal (MBD2MBD [4]) was ~1 fold affinity (reference).

B2: 17 bp central mCpG, SPR (dsDNA)
DNA 1: GAGGCGCTCGGCGGCAG
DNA 2: CTGCCGCCGAGCGCCTC
modifications: 5-methyl-C at position 9 of strand 1 (central CpG); complement mC at position 8 implied, not given
Molecule B2 has a Kd (MBD2(150-260) [5]) of 20 nM and a Kd (MBD2MBD [6]) of 330 nM.
